The source of these data is patent publication US20140128280A1 (published 2014).

In one experiment the target is T1, transferrin (human, UniProt P02787 20-698).
T1 construct: Amine-coupled to SPR chips, tips or beads; Alexa 555-labeled on arrays; also called TRF; pooled human transferrin (Sigma)
Kind of experiment: SPR (Biacore A-100), purified peptide at several concentrations.

Another experiment concerns the target T2, α1-antitrypsin.
T2 construct: also called α-antitrypsin; α-antitrypsine
The experiment is described as follows: SPR.

For experiment [1], the target named is T3, Gal80 (UniProt P04387 1-435, limits assumed).
T3 construct: Cy3/Cy5-labeled on arrays; immobilized on SPR chip or ELISA well, or in solution over immobilized synbody
T3 sequence (looked up): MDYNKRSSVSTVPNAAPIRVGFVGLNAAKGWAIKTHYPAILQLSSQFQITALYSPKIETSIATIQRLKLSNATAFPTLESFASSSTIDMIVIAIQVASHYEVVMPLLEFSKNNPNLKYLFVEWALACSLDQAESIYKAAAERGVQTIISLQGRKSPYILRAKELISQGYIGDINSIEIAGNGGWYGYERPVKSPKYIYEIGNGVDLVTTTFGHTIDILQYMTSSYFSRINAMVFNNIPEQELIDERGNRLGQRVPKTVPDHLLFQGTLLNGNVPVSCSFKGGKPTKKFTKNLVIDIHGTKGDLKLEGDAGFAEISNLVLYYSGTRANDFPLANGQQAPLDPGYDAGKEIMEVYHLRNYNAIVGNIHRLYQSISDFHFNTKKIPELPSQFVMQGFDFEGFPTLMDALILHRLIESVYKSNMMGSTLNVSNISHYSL
Kind of experiment: gel shift assay.

For experiment [2], the target named is T3, Gal80. The experiment is described as follows: SPR, synbody in solution (1 µM to 7.81 nM) over surface-bound Gal80.

T2 sequence (P01009 25-418): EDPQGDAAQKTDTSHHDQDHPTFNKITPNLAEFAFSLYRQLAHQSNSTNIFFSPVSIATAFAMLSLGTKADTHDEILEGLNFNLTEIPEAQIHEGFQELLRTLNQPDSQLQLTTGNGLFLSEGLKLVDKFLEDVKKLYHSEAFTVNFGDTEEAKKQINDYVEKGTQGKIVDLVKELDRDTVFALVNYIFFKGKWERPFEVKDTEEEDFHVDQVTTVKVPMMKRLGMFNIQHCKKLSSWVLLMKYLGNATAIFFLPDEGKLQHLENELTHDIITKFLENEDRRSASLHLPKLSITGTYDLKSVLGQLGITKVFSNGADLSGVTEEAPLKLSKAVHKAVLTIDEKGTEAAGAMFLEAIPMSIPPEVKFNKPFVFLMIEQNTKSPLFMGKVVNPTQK
T1 sequence (P02787 20-698 limits assumed): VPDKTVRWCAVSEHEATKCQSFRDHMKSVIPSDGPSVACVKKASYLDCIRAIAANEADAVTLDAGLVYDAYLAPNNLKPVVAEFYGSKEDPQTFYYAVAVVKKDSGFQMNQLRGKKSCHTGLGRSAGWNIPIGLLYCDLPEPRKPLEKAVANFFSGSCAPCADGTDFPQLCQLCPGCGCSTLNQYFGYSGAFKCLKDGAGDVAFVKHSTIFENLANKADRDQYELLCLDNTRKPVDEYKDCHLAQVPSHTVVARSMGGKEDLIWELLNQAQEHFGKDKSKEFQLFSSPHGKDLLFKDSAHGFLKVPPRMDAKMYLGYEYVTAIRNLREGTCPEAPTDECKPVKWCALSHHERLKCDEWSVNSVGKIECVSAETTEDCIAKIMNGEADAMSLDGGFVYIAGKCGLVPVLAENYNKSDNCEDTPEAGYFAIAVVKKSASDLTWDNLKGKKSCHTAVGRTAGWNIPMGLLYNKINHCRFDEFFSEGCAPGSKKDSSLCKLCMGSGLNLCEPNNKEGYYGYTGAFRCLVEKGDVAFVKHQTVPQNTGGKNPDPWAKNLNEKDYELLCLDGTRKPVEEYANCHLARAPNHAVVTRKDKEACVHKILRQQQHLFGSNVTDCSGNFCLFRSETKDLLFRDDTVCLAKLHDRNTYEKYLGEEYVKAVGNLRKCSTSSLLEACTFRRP
Description for transferrin: A Biacore A-100 Surface Plasmon Resonance (SPR) system was used to measure the binding response of each peptide to several different target proteins immobilized on a gold surface. The A-100 has four different flow cells and within each flow cell are five addressable spots. Therefore four different proteins and a negative control reference can be used per flow cell. […] Sensorgrams are collected from each immobilized protein, so a binding profile for each analyte versus each of the protein targets is generated for each injection. Target proteins were immobilized using a biotin capture approach in which a CM5 chip was activated using standard amine coupling chemistry and Neutravidin was covalently coupled to the chip. Each biotinylated protein was injected over a single spot and the amount of protein captured was measured. In this manner four proteins were immobilized per flow cell. In this example, the same four proteins were captured in all four flow cells for this experiment.

As for NQYVPIFSQPEDPVQQEGSC (Screened unpurified) [TRF102], the binding result with transferrin is “no binding”.

B1: BP1/BP2 DNA-linked synbody (linker-optimized: BP1 on the template strand, BP2 at position 13 from the 3' end of the variable strand) (designed binder)
peptide 1: GTEKGTSGWLKTGSC
peptide 2: EGEWTEGKLSLRGSC
modifications: C-terminal Cys joined through SMCC to the amine-modified cytosine at position 13 from the 3' terminus of the DNA variable strand (SEQ ID NO: 15); C-terminal Cys joined through SMCC to the 5' terminal amine-modified cytosine of the DNA template strand (SEQ ID NO: 14)
notes: Two peptides held by a double-stranded DNA linker; also called Gal80 synbody; gal80 synbody
With B1, in the experiment with α1-antitrypsin, the “Kd relative to the Kd for gal80” value is 1000 fold. For the same molecule, the figures for the Kd with Gal80 [1] and with Gal80 [2] were around 100 nM and 91 nM, respectively.
